From patent US20120214174

T1: MUC1-a peptide (AHGVTSAPDTR)
T1 chain: AHGVTSAPDTR

T2: MUC1-b peptide (RPAPGSTAPPA)
T2 chain: RPAPGSTAPPA


Experiments:
[1] = target: endogenous MUC1 protein (Mucin-1)
[2] = target: T1, MUC1-a peptide (AHGVTSAPDTR)
[3] = target: T2, MUC1-b peptide (RPAPGSTAPPA)

| Protein | Western blot of MUC1 in stable HeLa transformants (band shift by O-glycosylation) [1] | in vitro GalNAc-transferase assay (HPLC of DNS-labelled peptide) [2] | in vitro GalNAc-transferase assay (HPLC of DNS-labelled peptide) [3] |
| --- | --- | --- | --- |
| HA-tagged wild-type GALNT6 protein stably expressed in HeLa cells (pCAGGS-GALNT6-HA) (protein) MRLLRRRHMPLRLAMVGCAFVLFLFLLHRDVSSREEATEKPWLKSLVSRKDHVLDLMLEAMNNLRDSMPKLQIRAPEAQQTLFSINQSCLPGFYTPAELKPFWERPPQDPNAPGADGKAFQKSKWTPLETQEKEEGYKKHCFNAFASDRISLQRSLGPDTRPPECVDQKFRRCPPLATTSVIIVFHNEAWSTLLRTVYSVLHTTPAILLKEIILVDDASTEEHLKEKLEQYVKQLQVVRVVRQEERKGLITARLLGASVAQAEVLTFLDAHCECFHGWLEPLLARIAEDKTVVVSPDIVTIDLNTFEFAKPVQRGRVHSRGNFDWSLTFGWETLPPHEKQRRKDETYPIKSPTFAGGLFSISKSYFEHIGTYDNQMEIWGGENVEMSFRVWQCGGQLEIIPCSVVGHVFRTKSPHTFPKGTSVIARNQVRLAEVWMDSYKKIFYRRNLQAAKMAQEKSFGDISERLQLREQLHCHNFSWYLHNVYPEMFVPDLTPTFYGAIKNLGTNQCLDVGENNRGGKPLIMYSCHGLGGNQYFEYTTQRDLRHNIAKQLCLHVSKGALGLGSCHFTGKNSQVPKDEEWELAQDQLIRNSGSGTCLTSQDKKPAMAPCNPSDPHQLWLFV | In the cells with WT-GALNT6 (clone no. 101, 110 and 304), the highest molecular weight of MUC1 protein (>250 kDa) was observed |  |  |
| HA-tagged GALNT6 H271D mutant stably expressed in HeLa cells (pCAGGS-GALNT6 (H271D)-HA) (protein) MRLLRRRHMPLRLAMVGCAFVLFLFLLHRDVSSREEATEKPWLKSLVSRKDHVLDLMLEAMNNLRDSMPKLQIRAPEAQQTLFSINQSCLPGFYTPAELKPFWERPPQDPNAPGADGKAFQKSKWTPLETQEKEEGYKKHCFNAFASDRISLQRSLGPDTRPPECVDQKFRRCPPLATTSVIIVFHNEAWSTLLRTVYSVLHTTPAILLKEIILVDDASTEEHLKEKLEQYVKQLQVVRVVRQEERKGLITARLLGASVAQAEVLTFLDADCECFHGWLEPLLARIAEDKTVVVSPDIVTIDLNTFEFAKPVQRGRVHSRGNFDWSLTFGWETLPPHEKQRRKDETYPIKSPTFAGGLFSISKSYFEHIGTYDNQMEIWGGENVEMSFRVWQCGGQLEIIPCSVVGHVFRTKSPHTFPKGTSVIARNQVRLAEVWMDSYKKIFYRRNLQAAKMAQEKSFGDISERLQLREQLHCHNFSWYLHNVYPEMFVPDLTPTFYGAIKNLGTNQCLDVGENNRGGKPLIMYSCHGLGGNQYFEYTTQRDLRHNIAKQLCLHVSKGALGLGSCHFTGKNSQVPKDEEWELAQDQLIRNSGSGTCLTSQDKKPAMAPCNPSDPHQLWLFV | in those with mock (clone no. 001, 003 and 006) or H271D (clone no. 102, 212 and 114) the shifted band was not observed |  |  |
| recombinant wild-type GALNT6 protein without a signal peptide (codons 35-622), His-tagged (protein) EEATEKPWLKSLVSRKDHVLDLMLEAMNNLRDSMPKLQIRAPEAQQTLFSINQSCLPGFYTPAELKPFWERPPQDPNAPGADGKAFQKSKWTPLETQEKEEGYKKHCFNAFASDRISLQRSLGPDTRPPECVDQKFRRCPPLATTSVIIVFHNEAWSTLLRTVYSVLHTTPAILLKEIILVDDASTEEHLKEKLEQYVKQLQVVRVVRQEERKGLITARLLGASVAQAEVLTFLDAHCECFHGWLEPLLARIAEDKTVVVSPDIVTIDLNTFEFAKPVQRGRVHSRGNFDWSLTFGWETLPPHEKQRRKDETYPIKSPTFAGGLFSISKSYFEHIGTYDNQMEIWGGENVEMSFRVWQCGGQLEIIPCSVVGHVFRTKSPHTFPKGTSVIARNQVRLAEVWMDSYKKIFYRRNLQAAKMAQEKSFGDISERLQLREQLHCHNFSWYLHNVYPEMFVPDLTPTFYGAIKNLGTNQCLDVGENNRGGKPLIMYSCHGLGGNQYFEYTTQRDLRHNIAKQLCLHVSKGALGLGSCHFTGKNSQVPKDEEWELAQDQLIRNSGSGTCLTSQDKKPAMAPCNPSDPHQLWLFV |  | WT-GALNT6 rapidly O-glycosylated MUC1 peptides in 10-min incubation | WT-GALNT6 rapidly O-glycosylated MUC1 peptides in 10-min incubation |
| recombinant GALNT6 E382Q mutant protein (protein) EEATEKPWLKSLVSRKDHVLDLMLEAMNNLRDSMPKLQIRAPEAQQTLFSINQSCLPGFYTPAELKPFWERPPQDPNAPGADGKAFQKSKWTPLETQEKEEGYKKHCFNAFASDRISLQRSLGPDTRPPECVDQKFRRCPPLATTSVIIVFHNEAWSTLLRTVYSVLHTTPAILLKEIILVDDASTEEHLKEKLEQYVKQLQVVRVVRQEERKGLITARLLGASVAQAEVLTFLDAHCECFHGWLEPLLARIAEDKTVVVSPDIVTIDLNTFEFAKPVQRGRVHSRGNFDWSLTFGWETLPPHEKQRRKDETYPIKSPTFAGGLFSISKSYFEHIGTYDNQMEIWGGQNVEMSFRVWQCGGQLEIIPCSVVGHVFRTKSPHTFPKGTSVIARNQVRLAEVWMDSYKKIFYRRNLQAAKMAQEKSFGDISERLQLREQLHCHNFSWYLHNVYPEMFVPDLTPTFYGAIKNLGTNQCLDVGENNRGGKPLIMYSCHGLGGNQYFEYTTQRDLRHNIAKQLCLHVSKGALGLGSCHFTGKNSQVPKDEEWELAQDQLIRNSGSGTCLTSQDKKPAMAPCNPSDPHQLWLFV |  | mutant-GALNT6 proteins (H271D and E382Q) could not transfer GalNAc to MUC1 peptides even by 16 hours incubation | mutant-GALNT6 proteins (H271D and E382Q) could not transfer GalNAc to MUC1 peptides even by 16 hours incubation |
| recombinant GALNT6 H271D mutant protein (protein) EEATEKPWLKSLVSRKDHVLDLMLEAMNNLRDSMPKLQIRAPEAQQTLFSINQSCLPGFYTPAELKPFWERPPQDPNAPGADGKAFQKSKWTPLETQEKEEGYKKHCFNAFASDRISLQRSLGPDTRPPECVDQKFRRCPPLATTSVIIVFHNEAWSTLLRTVYSVLHTTPAILLKEIILVDDASTEEHLKEKLEQYVKQLQVVRVVRQEERKGLITARLLGASVAQAEVLTFLDADCECFHGWLEPLLARIAEDKTVVVSPDIVTIDLNTFEFAKPVQRGRVHSRGNFDWSLTFGWETLPPHEKQRRKDETYPIKSPTFAGGLFSISKSYFEHIGTYDNQMEIWGGENVEMSFRVWQCGGQLEIIPCSVVGHVFRTKSPHTFPKGTSVIARNQVRLAEVWMDSYKKIFYRRNLQAAKMAQEKSFGDISERLQLREQLHCHNFSWYLHNVYPEMFVPDLTPTFYGAIKNLGTNQCLDVGENNRGGKPLIMYSCHGLGGNQYFEYTTQRDLRHNIAKQLCLHVSKGALGLGSCHFTGKNSQVPKDEEWELAQDQLIRNSGSGTCLTSQDKKPAMAPCNPSDPHQLWLFV |  | mutant-GALNT6 proteins (H271D and E382Q) could not transfer GalNAc to MUC1 peptides even by 16 hours incubation | mutant-GALNT6 proteins (H271D and E382Q) could not transfer GalNAc to MUC1 peptides even by 16 hours incubation |
